Experimental data taken from PMC8646660 (EMBO Molecular Medicine, 2021).

Target: SARS-CoV-2 S receptor-binding domain (RBD), biotinylated (SARS-CoV-2, UniProt P0DTC2, biotin on the Avi tag (enzymatic, BirA))
Test: cell-based or functional assay

B1: FD20 (IgG format) (antibody, V domains shown)
VH: QVQLQQSGAEVKKPGSSVKVSCKASGGTFSSYAFSWVRQAPGQGLEWMGRIIPILGIANYAQKFQGRVTITADISTSTAYMALSSLRSEDTAVYYCAKVEVNIGMDDYYYYYGMDVWGQGTTVTVSS
VL: not shown
With B1 the “neutralisation of SARS-CoV-2 pp harbouring wild-type S, IC50 (fold in brackets)” value was 12 nM.
